The source of these data is publication PMC7614494.

The target in test [1] is Mouse saposin A (mouse). Description: SEC-MALS; SapA after incubation with DDM-solubilised phosphatidylcholine (PC:SapA 30:1); Superdex 200 Increase 10/300 GL, 100 mM citrate pH 4.0, 150 mM NaCl, room temperature; protein conjugate analysis of three regions of a heterogeneous peak. A general note: SEC sorts molecules by how far they enter the pores of the column.
Test [2] has as its target Mouse saposin A (mouse). Description: crystal structure; SapA-PC preparation (100 mM citrate pH 4.0, 150 mM NaCl) mixed with acid ceramidase; sitting drops at 293 K, 23.25% PEG 3350, 0.1 M Bis-Tris pH 5.6; only SapA found in the crystal; 3.17 Å.

One may read the stoichiometry N as a count of units in the complex or per binding partner. On to Mouse saposin A (natural protein), for which the stoichiometry N with Mouse saposin A (mouse) [1] is 3 to 4; with Mouse saposin A (mouse) [2], 4.
